B1: CΔ207 GFAP (domain or fragment, human, UniProt P14136 1-225, looked up)
chain: MERRRITSAARRSYVSSGEMMVGGLAPGRRLGPGTRLSLARMPPPLPTRVDFSLAGALNAGFKETRASERAEMMELNDRFASYIEKVRFLEQQNKALAAELNQLRAKEPTKLADVYQAELRELRLRLDQLTANSARLEVERDNLAQDLATVRQKLQDETNLRLEAENNLAAYRQEADEATLARLDLERKIESLEEEIRFLRKIHEEEVRELQEQLARQQVHVELD
notes: Human GFAPα, the first 225 amino acids; N-terminal fragment produced by caspase-6 cleavage at 222VELD225; Expressed from pET23b; no tag named
B2: CΔ92 GFAP (domain or fragment, human, UniProt P14136 1-340, looked up)
chain: MERRRITSAARRSYVSSGEMMVGGLAPGRRLGPGTRLSLARMPPPLPTRVDFSLAGALNAGFKETRASERAEMMELNDRFASYIEKVRFLEQQNKALAAELNQLRAKEPTKLADVYQAELRELRLRLDQLTANSARLEVERDNLAQDLATVRQKLQDETNLRLEAENNLAAYRQEADEATLARLDLERKIESLEEEIRFLRKIHEEEVRELQEQLARQQVHVELDVAKPDLTAALKEIRTQYEAMASSNMHEAEEWYRSKFADLTDAAARNAELLRQAKHEANDYRRQLQSLTCDLESLRGTNESLERQMREQEERHVREAASYQEALARLEEEGQSLKD
notes: Human GFAPα with 92 residues deleted from the C-terminus (CΔX is the number of residues deleted from the C-terminus); fragment potentially generated by calpain cleavage at 337SLKD340; Expressed from pET23b; no tag named
B3: ΔEx4 GFAP (natural protein)
chain: not shown
notes: Expressed from pET23b; no tag named; also called ΔEx4 mutant
B4: CΔ121 GFAP (domain or fragment, human, UniProt P14136 1-311, looked up)
chain: MERRRITSAARRSYVSSGEMMVGGLAPGRRLGPGTRLSLARMPPPLPTRVDFSLAGALNAGFKETRASERAEMMELNDRFASYIEKVRFLEQQNKALAAELNQLRAKEPTKLADVYQAELRELRLRLDQLTANSARLEVERDNLAQDLATVRQKLQDETNLRLEAENNLAAYRQEADEATLARLDLERKIESLEEEIRFLRKIHEEEVRELQEQLARQQVHVELDVAKPDLTAALKEIRTQYEAMASSNMHEAEEWYRSKFADLTDAAARNAELLRQAKHEANDYRRQLQSLTCDLESLRGTNESLERQMR
notes: Human GFAPα, the initial 311 residues; truncation caused by a nonsense Alexander disease mutation; Expressed from pET23b; no tag named
B5: ΔEx5 GFAP (natural protein)
chain: not shown
notes: Human GFAPα with an in-frame deletion of 42 residues, amino acids 261-302 (skipping of exon 5, an Alexander disease splice site mutation); Expressed from pET23b; no tag named; also called ΔEx5 mutant; ΔEx5 deletion mutant

How the values were obtained:
[1] = biological target: the molecule itself; experiment: low-speed sedimentation assay of assembled filaments; assembly mixture centrifuged at 1000 x g for 5 min at room temperature; supernatant and pellet by SDS-PAGE and Coomassie; monitors filament aggregation
[2] = biological target: the molecule itself; experiment: high-speed sedimentation assay of assembled filaments; assembly mixture layered on a 0.85 M sucrose cushion in assembly buffer, 80,000 x g, 20 min, 20 °C; supernatant and pellet by SDS-PAGE and Coomassie; efficiency is the percent of total protein in the pellet
[3] = biological target: T1, Glial fibrillary acidic protein (GFAP), full-length wild type, human GFAPα (human, UniProt P14136-1 1-432); experiment: in vitro filament assembly with negative-stain transmission electron microscopy; 0.2 mg/mL GFAP dialysed stepwise out of 6 M urea into low-salt buffer, then into assembly buffer (10 mM Tris-HCl, 50 mM NaCl, 1 mM DTT, pH 7) at 34–36 °C for 12–16 h; stained with 1% uranyl acetate; mutants alone or coassembled with WT at stated proportions; settings: both partners purified
T1 construct: Glial fibrillary acidic protein, major isoform GFAPα, human, full length, cDNA in pET23b; Expressed from pET23b; also called WT GFAP; WT

[4] = biological target: T1, Glial fibrillary acidic protein (GFAP), …; experiment: high-speed sedimentation assay of assembled filaments; assembly mixture layered on a 0.85 M sucrose cushion in assembly buffer, 80,000 x g, 20 min, 20 °C; supernatant and pellet by SDS-PAGE and Coomassie; efficiency is the percent of total protein in the pellet; settings: both partners purified

Row | Binder | percent in the pellet (low-speed sedimentation) [1] [%] | binding result [2] | binding result [3] | binding result [4]
1 | B1 | 91 |  |  | 
2 | B2 |  | binds |  | 
3 | B3 |  | binds | binds | 
4 | B4 | 68 |  |  | 
5 | B5 | 69 |  |  | binds

— article PMC11900225, “Deletions in Glial Fibrillary Acidic Protein Leading to Alterations in Intermediate Filament Assembly and Network Formation” (International Journal of Molecular Sciences, 2025)
